Measurements published in patent publication US20120264212.

Test system: T1, Dab2 N-terminal phosphotyrosine binding (N-PTB) domain, residues 1-241 of human Disabled-2, wild type
T1 sequence: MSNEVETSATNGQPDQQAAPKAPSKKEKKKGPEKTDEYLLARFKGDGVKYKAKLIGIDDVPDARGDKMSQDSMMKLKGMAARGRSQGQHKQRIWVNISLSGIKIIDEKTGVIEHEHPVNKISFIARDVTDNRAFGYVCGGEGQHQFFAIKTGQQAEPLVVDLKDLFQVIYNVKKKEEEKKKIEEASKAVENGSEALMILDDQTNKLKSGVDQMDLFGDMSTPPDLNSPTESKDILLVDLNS

## thrombin
  thrombin limited proteolysis (SDS-PAGE): thrombin cleaved the N-PTB domain leaving a ˜25 kDa protease-resistant product
